From PMC5468090 come the findings set out here.

Assay in all cases: SPR
In one data set the test system is XRCC4-WT;XLF-Ala. Particulars: 1 uM each; described as similar to WT-WT; EMSA: 10 mM HEPES pH 8, 75 mM KCl, 0.5 mM EDTA, 0.5 mM DTT, 5% glycerol, RT 30 min, 200 ng DNA/10 ul; SPR: 20 mM HEPES pH 8, 75 mM KCl, 10% glycerol, 1 mM DTT …. For orientation: Mobility shift assays separate free from complexed probe on a gel.
The next data set has as its system XRCC4-Asp;XLF-Asp. Particulars: 1 uM each; koff_fast 4-fold faster than WT-WT; EMSA: 10 mM HEPES pH 8, 75 mM KCl, 0.5 mM EDTA, 0.5 mM DTT, 5% glycerol, RT 30 min, 200 ng DNA/10 ul; SPR: 20 mM HEPES pH 8, 75 mM KCl, 10% glycerol, 1 mM DTT ….
The subject of the next data set is XRCC4-WT;XLF-WT. As to conditions: 1 uM each; EMSA: 10 mM HEPES pH 8, 75 mM KCl, 0.5 mM EDTA, 0.5 mM DTT, 5% glycerol, RT 30 min, 200 ng DNA/10 ul; SPR: 20 mM HEPES pH 8, 75 mM KCl, 10% glycerol, 1 mM DTT ….
A further data set deals with XRCC4-Ala;XLF-WT. Particulars: 1 uM each; described as similar to WT-WT; EMSA: 10 mM HEPES pH 8, 75 mM KCl, 0.5 mM EDTA, 0.5 mM DTT, 5% glycerol, RT 30 min, 200 ng DNA/10 ul; SPR: 20 mM HEPES pH 8, 75 mM KCl, 10% glycerol, 1 mM DTT ….
Another data set relates to XRCC4-Ala;XLF-Ala. As to conditions: 1 uM each; described as similar to WT-WT; EMSA: 10 mM HEPES pH 8, 75 mM KCl, 0.5 mM EDTA, 0.5 mM DTT, 5% glycerol, RT 30 min, 200 ng DNA/10 ul; SPR: 20 mM HEPES pH 8, 75 mM KCl, 10% glycerol, 1 mM DTT ….

As for 400 bp SPR DNA, the binding signal (fold equilibrium affinity vs WT-WT) was 1 in the data set with XRCC4-WT;XLF-Ala, 0.25 in the data set on XRCC4-Asp;XLF-Asp, 1 in the data set on XRCC4-Ala;XLF-WT and 1 with XRCC4-Ala;XLF-Ala. In the data set on XRCC4-WT;XLF-WT, this substance came in with a binding signal (fold equilibrium affinity (reference)) of 1.
